According to the supplement of paper PMC10567573:

B1: VENTX (parent)
chain: VFQHHQYLSPLERKRLAREMQLSE

Variants of: B1
Experiment: protein stability index of a GFP-peptide fusion (GPS, HEK-293T) (PSI 1-6); higher = more stable
Settings: c terminus: a fixed tail appended
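Also: lentivirally expressed fusions sorted by FACS into six bins by GFP to DsRed ratio, PSI derived from sequencing read proportions per bin multiplied by bin number.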

Variant	protein stability index
VFQHHWYLSPLERKRLAREMQLSE	2.17
VFQHHYYLSPLERKRLAREMQLSE	2.09
VFQHHQALSPLERKRLAREMQLSE	2.98
VFQHHQCLSPLERKRLAREMQLSE	2.5
VFQHHQDLSPLERKRLAREMQLSE	3.84
VFQHHQELSPLERKRLAREMQLSE	3.22
VFQHHQFLSPLERKRLAREMQLSE	2.99
VFQHHQGLSPLERKRLAREMQLSE	2.34
VFQHHQHLSPLERKRLAREMQLSE	2.33
VFQHHQILSPLERKRLAREMQLSE	2.54
VFQHHQKLSPLERKRLAREMQLSE	2.71
VFQHHQLLSPLERKRLAREMQLSE	2.5
VFQHHQMLSPLERKRLAREMQLSE	3.04
VFQHHQNLSPLERKRLAREMQLSE	2.36
VFQHHQPLSPLERKRLAREMQLSE	3.33
VFQHHQQLSPLERKRLAREMQLSE	3.27
VFQHHQRLSPLERKRLAREMQLSE	2.42
VFQHHQSLSPLERKRLAREMQLSE	2.68
VFQHHQTLSPLERKRLAREMQLSE	3.49
VFQHHQVLSPLERKRLAREMQLSE	3.48
VFQHHQWLSPLERKRLAREMQLSE	2.11
VFQHHQYASPLERKRLAREMQLSE	2.65
VFQHHQYCSPLERKRLAREMQLSE	2.22
VFQHHQYDSPLERKRLAREMQLSE	3.31

Variant	protein stability index
VFQHHQYESPLERKRLAREMQLSE	3.66
VFQHHQYFSPLERKRLAREMQLSE	2.62
VFQHHQYGSPLERKRLAREMQLSE	2.42
VFQHHQYHSPLERKRLAREMQLSE	2.75
VFQHHQYISPLERKRLAREMQLSE	3.02
VFQHHQYKSPLERKRLAREMQLSE	3.6
VFQHHQYMSPLERKRLAREMQLSE	2.55
VFQHHQYNSPLERKRLAREMQLSE	2.72
VFQHHQYPSPLERKRLAREMQLSE	2.52
VFQHHQYQSPLERKRLAREMQLSE	2.89
VFQHHQYRSPLERKRLAREMQLSE	2.25
VFQHHQYSSPLERKRLAREMQLSE	2.09
VFQHHQYTSPLERKRLAREMQLSE	2.4
VFQHHQYVSPLERKRLAREMQLSE	2.41
VFQHHQYWSPLERKRLAREMQLSE	1.83
VFQHHQYYSPLERKRLAREMQLSE	2.32
VFQHHQYLAPLERKRLAREMQLSE	2
VFQHHQYLCPLERKRLAREMQLSE	2.17
VFQHHQYLDPLERKRLAREMQLSE	2.73
VFQHHQYLEPLERKRLAREMQLSE	2.86
VFQHHQYLFPLERKRLAREMQLSE	1.99
VFQHHQYLGPLERKRLAREMQLSE	2.38
VFQHHQYLHPLERKRLAREMQLSE	2.38
VFQHHQYLIPLERKRLAREMQLSE	1.69

Variant	protein stability index
VFQHHQYLKPLERKRLAREMQLSE	2.39
VFQHHQYLLPLERKRLAREMQLSE	2.22
VFQHHQYLMPLERKRLAREMQLSE	2.33
VFQHHQYLNPLERKRLAREMQLSE	2.59
VFQHHQYLPPLERKRLAREMQLSE	2.88
VFQHHQYLQPLERKRLAREMQLSE	3.25
VFQHHQYLRPLERKRLAREMQLSE	2.64
VFQHHQYLTPLERKRLAREMQLSE	2.21
VFQHHQYLVPLERKRLAREMQLSE	2.08
VFQHHQYLWPLERKRLAREMQLSE	1.52
VFQHHQYLYPLERKRLAREMQLSE	2.21
VFQHHQYLSALERKRLAREMQLSE	2.62
VFQHHQYLSCLERKRLAREMQLSE	2.32
VFQHHQYLSDLERKRLAREMQLSE	2.31
VFQHHQYLSELERKRLAREMQLSE	2.91
VFQHHQYLSFLERKRLAREMQLSE	1.91
VFQHHQYLSGLERKRLAREMQLSE	2.23
VFQHHQYLSHLERKRLAREMQLSE	2.73
VFQHHQYLSILERKRLAREMQLSE	2.42
VFQHHQYLSKLERKRLAREMQLSE	2.52
VFQHHQYLSLLERKRLAREMQLSE	2.67
VFQHHQYLSMLERKRLAREMQLSE	2.23
VFQHHQYLSNLERKRLAREMQLSE	2.82
VFQHHQYLSQLERKRLAREMQLSE	2.46

Variant	protein stability index
VFQHHQYLSSLERKRLAREMQLSE	2.89
VFQHHQYLSTLERKRLAREMQLSE	1.86
VFQHHQYLSVLERKRLAREMQLSE	2.63
VFQHHQYLSWLERKRLAREMQLSE	1.96
VFQHHQYLSYLERKRLAREMQLSE	2.54
VFQHHQYLSPAERKRLAREMQLSE	3
VFQHHQYLSPCERKRLAREMQLSE	2.4
VFQHHQYLSPDERKRLAREMQLSE	2.97
VFQHHQYLSPEERKRLAREMQLSE	3.41
VFQHHQYLSPFERKRLAREMQLSE	2.42
VFQHHQYLSPGERKRLAREMQLSE	1.95
VFQHHQYLSPHERKRLAREMQLSE	2.77
VFQHHQYLSPIERKRLAREMQLSE	2.4
VFQHHQYLSPKERKRLAREMQLSE	3.03
VFQHHQYLSPMERKRLAREMQLSE	2.65
VFQHHQYLSPNERKRLAREMQLSE	3.2
VFQHHQYLSPPERKRLAREMQLSE	2.1
VFQHHQYLSPQERKRLAREMQLSE	2.73
VFQHHQYLSPRERKRLAREMQLSE	2.31
VFQHHQYLSPSERKRLAREMQLSE	2.64
VFQHHQYLSPTERKRLAREMQLSE	2.93
VFQHHQYLSPVERKRLAREMQLSE	2.53
